Reference: the Human Domainome abundance scans (Beltran et al. 2025)
± gives the uncertainty stated by the source.

B1: Death-inducer obliterator 1, residues 263 to 321; numbered along this chain, Q9BTC0 (parent)
chain: GYDPNALYCICRQPHNNRFMICCDRCEEWFHGDCVGISEARGRLLERNGEDYICPNCTI

Variants of: B1
Assay: abundance fitness (aPCA) (normalised: wild type 0, dead -1); higher = more abundant; growth selection in yeast, the domain comes from the species named
Settings: Homo sapiens
GYDPNALYCICRQPHDNRFMICCDRCEEWFHGDCVGISEARGRLLERNGEDYICPNCTI gave an abundance fitness of -0.049 ± 0.091. GYDPNALYCICRQPHGNRFMICCDRCEEWFHGDCVGISEARGRLLERNGEDYICPNCTI showed an abundance fitness of 0.152 ± 0.069. Work on GYDPNALYCICRQPHENRFMICCDRCEEWFHGDCVGISEARGRLLERNGEDYICPNCTI yielded an abundance fitness of 0.072 ± 0.082. GYDPNALYCICRQPHFNRFMICCDRCEEWFHGDCVGISEARGRLLERNGEDYICPNCTI gave an abundance fitness of -0.184 ± 0.079. GYDPNALYCICRQPHCNRFMICCDRCEEWFHGDCVGISEARGRLLERNGEDYICPNCTI showed an abundance fitness of -0.211 ± 0.089. For GYDPNALYCIGRQPHNNRFMICCDRCEEWFHGDCVGISEARGRLLERNGEDYICPNCTI, the abundance fitness was -1.15 ± 0.2. In the case of GYDPNALYCITRQPHNNRFMICCDRCEEWFHGDCVGISEARGRLLERNGEDYICPNCTI, the abundance fitness is reported as -0.747 ± 0.13. Work on GYDPNALYCISRQPHNNRFMICCDRCEEWFHGDCVGISEARGRLLERNGEDYICPNCTI yielded an abundance fitness of -0.92 ± 0.12. Work on GYDPNALYCIIRQPHNNRFMICCDRCEEWFHGDCVGISEARGRLLERNGEDYICPNCTI yielded an abundance fitness of -0.785 ± 0.12. GYDPNALYCIDRQPHNNRFMICCDRCEEWFHGDCVGISEARGRLLERNGEDYICPNCTI showed an abundance fitness of -0.381 ± 0.19. For GYDPNALYCIFRQPHNNRFMICCDRCEEWFHGDCVGISEARGRLLERNGEDYICPNCTI, the abundance fitness was -0.724 ± 0.28. With GYDPNALYCIQRQPHNNRFMICCDRCEEWFHGDCVGISEARGRLLERNGEDYICPNCTI the abundance fitness was -0.609 ± 0.16. GYDPNALYCIWRQPHNNRFMICCDRCEEWFHGDCVGISEARGRLLERNGEDYICPNCTI showed an abundance fitness of -0.953 ± 0.2. GYDPNALYCINRQPHNNRFMICCDRCEEWFHGDCVGISEARGRLLERNGEDYICPNCTI gave an abundance fitness of -0.708 ± 0.21. GYDPNALYCIERQPHNNRFMICCDRCEEWFHGDCVGISEARGRLLERNGEDYICPNCTI gave an abundance fitness of -0.622 ± 0.093. Variant GYDPNALYCILRQPHNNRFMICCDRCEEWFHGDCVGISEARGRLLERNGEDYICPNCTI has an abundance fitness of -0.861 ± 0.11. GYDPNALYCIRRQPHNNRFMICCDRCEEWFHGDCVGISEARGRLLERNGEDYICPNCTI showed an abundance fitness of -0.861 ± 0.087. GYDPNALYCIPRQPHNNRFMICCDRCEEWFHGDCVGISEARGRLLERNGEDYICPNCTI gave an abundance fitness of -0.999 ± 0.16. GYDPNALYCIMRQPHNNRFMICCDRCEEWFHGDCVGISEARGRLLERNGEDYICPNCTI showed an abundance fitness of -0.71 ± 0.11. In the case of GYDPNALYCICRKPHNNRFMICCDRCEEWFHGDCVGISEARGRLLERNGEDYICPNCTI, the abundance fitness is reported as -0.054 ± 0.066. GYDPNALYCICRNPHNNRFMICCDRCEEWFHGDCVGISEARGRLLERNGEDYICPNCTI showed an abundance fitness of -0.061 ± 0.15. With GYDPNALYCICRTPHNNRFMICCDRCEEWFHGDCVGISEARGRLLERNGEDYICPNCTI the abundance fitness was 0.105 ± 0.076. With GYDPNALYCICRRPHNNRFMICCDRCEEWFHGDCVGISEARGRLLERNGEDYICPNCTI the abundance fitness was -0.085 ± 0.072. In the case of GYDPNALYCICRDPHNNRFMICCDRCEEWFHGDCVGISEARGRLLERNGEDYICPNCTI, the abundance fitness is reported as 0.02 ± 0.11. Variant GYDPNALYCICRHPHNNRFMICCDRCEEWFHGDCVGISEARGRLLERNGEDYICPNCTI has an abundance fitness of -0.159 ± 0.2. GYDPNALYCICRYPHNNRFMICCDRCEEWFHGDCVGISEARGRLLERNGEDYICPNCTI showed an abundance fitness of -0.161 ± 0.12. With GYDPNALYCICRFPHNNRFMICCDRCEEWFHGDCVGISEARGRLLERNGEDYICPNCTI the abundance fitness was -0.159 ± 0.1. GYDPNALYCICRIPHNNRFMICCDRCEEWFHGDCVGISEARGRLLERNGEDYICPNCTI gave an abundance fitness of -0.111 ± 0.072. Variant GYDPNALYCICRMPHNNRFMICCDRCEEWFHGDCVGISEARGRLLERNGEDYICPNCTI has an abundance fitness of 0.149 ± 0.055. Work on GYDPNALYCICRAPHNNRFMICCDRCEEWFHGDCVGISEARGRLLERNGEDYICPNCTI yielded an abundance fitness of 0.183 ± 0.07. Variant GYDPNALYCICREPHNNRFMICCDRCEEWFHGDCVGISEARGRLLERNGEDYICPNCTI has an abundance fitness of 0.072 ± 0.07. In the case of GYDPNALYCICRVPHNNRFMICCDRCEEWFHGDCVGISEARGRLLERNGEDYICPNCTI, the abundance fitness is reported as -0.068 ± 0.041. In the case of GYDPNALYCICRLPHNNRFMICCDRCEEWFHGDCVGISEARGRLLERNGEDYICPNCTI, the abundance fitness is reported as -0.089 ± 0.05. GYDPNALYCICRGPHNNRFMICCDRCEEWFHGDCVGISEARGRLLERNGEDYICPNCTI showed an abundance fitness of -0.233 ± 0.097. For GYDPNALYCICRPPHNNRFMICCDRCEEWFHGDCVGISEARGRLLERNGEDYICPNCTI, the abundance fitness was -0.692 ± 0.17. Work on GYDPNALYCICRSPHNNRFMICCDRCEEWFHGDCVGISEARGRLLERNGEDYICPNCTI yielded an abundance fitness of -0.136 ± 0.052. Variant GYDPNALYCICEQPHNNRFMICCDRCEEWFHGDCVGISEARGRLLERNGEDYICPNCTI has an abundance fitness of -0.04 ± 0.094. GYDPNALYCICWQPHNNRFMICCDRCEEWFHGDCVGISEARGRLLERNGEDYICPNCTI gave an abundance fitness of -0.284 ± 0.11. Work on GYDPNALYCICIQPHNNRFMICCDRCEEWFHGDCVGISEARGRLLERNGEDYICPNCTI yielded an abundance fitness of -0.48 ± 0.14. GYDPNALYCICGQPHNNRFMICCDRCEEWFHGDCVGISEARGRLLERNGEDYICPNCTI gave an abundance fitness of 0.184 ± 0.069. GYDPNALYCICAQPHNNRFMICCDRCEEWFHGDCVGISEARGRLLERNGEDYICPNCTI gave an abundance fitness of -0.14 ± 0.1. Variant GYDPNALYCICFQPHNNRFMICCDRCEEWFHGDCVGISEARGRLLERNGEDYICPNCTI has an abundance fitness of -0.207 ± 0.081. Work on GYDPNALYCICKQPHNNRFMICCDRCEEWFHGDCVGISEARGRLLERNGEDYICPNCTI yielded an abundance fitness of 0.148 ± 0.061. For GYDPNALYCICHQPHNNRFMICCDRCEEWFHGDCVGISEARGRLLERNGEDYICPNCTI, the abundance fitness was 0.019 ± 0.095. Variant GYDPNALYCICPQPHNNRFMICCDRCEEWFHGDCVGISEARGRLLERNGEDYICPNCTI has an abundance fitness of -0.463 ± 0.08.
